Numbering of substitutions follows the chain as printed. In names and notes the source's numbering stands.
T1: hIL-11Rα (Homo sapiens, UniProt Q14626)
T1 sequence (Q14626 23-422): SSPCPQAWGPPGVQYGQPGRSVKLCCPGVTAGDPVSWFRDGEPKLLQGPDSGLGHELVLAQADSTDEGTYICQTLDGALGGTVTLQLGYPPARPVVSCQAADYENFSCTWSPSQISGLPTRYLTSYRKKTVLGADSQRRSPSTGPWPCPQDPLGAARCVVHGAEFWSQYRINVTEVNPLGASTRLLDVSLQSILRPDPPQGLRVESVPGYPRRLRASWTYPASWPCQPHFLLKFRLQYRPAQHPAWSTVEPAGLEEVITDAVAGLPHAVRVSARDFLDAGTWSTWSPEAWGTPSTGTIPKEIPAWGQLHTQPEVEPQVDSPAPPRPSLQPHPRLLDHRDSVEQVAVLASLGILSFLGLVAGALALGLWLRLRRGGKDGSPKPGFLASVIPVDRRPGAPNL

T2: human IL-11Rα (human, UniProt Q14626 23-363, limits assumed)
T2 construct: Protein coated on ELISA plates and used in solution for BLI; also called hIL-11Rα; hIL-11R
T2 sequence: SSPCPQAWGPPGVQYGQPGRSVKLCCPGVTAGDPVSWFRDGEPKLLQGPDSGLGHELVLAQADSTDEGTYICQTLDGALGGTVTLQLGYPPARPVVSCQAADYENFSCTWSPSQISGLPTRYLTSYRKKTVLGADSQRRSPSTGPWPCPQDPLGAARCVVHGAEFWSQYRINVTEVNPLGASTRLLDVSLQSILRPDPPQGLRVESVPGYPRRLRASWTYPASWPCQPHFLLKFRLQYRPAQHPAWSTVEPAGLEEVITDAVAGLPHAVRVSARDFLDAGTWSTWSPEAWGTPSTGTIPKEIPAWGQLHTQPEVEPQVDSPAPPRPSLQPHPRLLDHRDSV

B1: mAb9: anti-IL-11Rα antibody; VH SEQ ID NO: 209, VL SEQ ID NO: 210; human IgG4 (S228P), kappa light chain (antibody, V domains shown)
VH: EVQLLESGGGLVQPGGSLRLSCAASGFTFSWYSMTWVRQAPGKGLEWVSGIVPYGDLTQYADSVKGRFTISRDNSKNTLYLQMNSLRAEDTAVYYCAKGPGWGSFDLWGRGTLVTVSS
VL: DIQMTQSPSSLSASVGDRVTITCQASQDINNYLNWYQQKPGKAPKLLIYDASNLQTGVPSRFSGSGSGTDFTFTISSLQPEDIATYYCQQHESQSPTFGPGTKVDIK
modifications: human IgG4 and kappa constant regions; mAb9 VH Chain; mAb9 VL Chain
notes: anti-IL-11Rα antibody; human IgG4 (S228P), kappa light chain
B2: mAb12: anti-IL-11Rα antibody; VH SEQ ID NO: 215, VL SEQ ID NO: 216; human IgG4 (S228P), kappa light chain (antibody, V domains shown)
VH: B1 VH with G50S, G103Y
VL: B1 VL
modifications: human IgG4 S228P and kappa constant regions; mAb12 VH Chain; mAb12 VL Chain
notes: as for B1
B3: mAb14: anti-IL-11Rα antibody; VH SEQ ID NO: 219, VL SEQ ID NO: 220; human IgG4 (S228P), kappa light chain (antibody, V domains shown)
VH: B1 VH with G50S, D62E
VL: B1 VL
modifications: human IgG4 S228P and kappa constant regions; mAb14 VH Chain; mAb14 VL Chain
notes: as for B1
B4: mAb7: anti-IL-11Rα antibody; VH SEQ ID NO: 205, VL SEQ ID NO: 206; human IgG4 (S228P), kappa light chain (antibody, V domains shown)
VH: B1 VH with W31N, S33A, T35S, G50S
VL: B1 VL
modifications: human IgG4 S228P and kappa constant regions; mAb7 VH Chain; mAb7 VL Chain
notes: as for B1
B5: mAb6: anti-IL-11Rα antibody; VH SEQ ID NO: 203, VL SEQ ID NO: 204; human IgG4 (S228P), kappa light chain (antibody, V domains shown)
VH: B1 VH with G50S
VL: B1 VL with S93F
modifications: human IgG4 S228P and kappa constant regions; mAb6 VH Chain; mAb6 VL Chain
notes: as for B1
B6: mAb15: anti-IL-11Rα antibody; VH SEQ ID NO: 221, VL SEQ ID NO: 222; human IgG4 (S228P), kappa light chain (antibody, V domains shown)
VH: B1 VH with G50S
VL: B1 VL with S93T, S95T
modifications: human IgG4 S228P and kappa constant regions; mAb15 VH Chain; mAb15 VL Chain
notes: as for B1
B7: mAb13: anti-IL-11Rα antibody; VH SEQ ID NO: 217, VL SEQ ID NO: 218; human IgG4 (S228P), kappa light chain (antibody, V domains shown)
VH: B1 VH with G50S, G99P, P100E, G101D, S104R
VL: B1 VL
modifications: human IgG4 S228P and kappa constant regions; mAb13 VH Chain; mAb13 VL Chain
notes: as for B1
B8: mAb8: anti-IL-11Rα antibody; VH SEQ ID NO: 207, VL SEQ ID NO: 208; human IgG4 (S228P), kappa light chain (antibody, V domains shown)
VH: B1 VH with W31S, S33A, T35S, G50S
VL: B1 VL
modifications: human IgG4 and kappa constant regions; mAb8 VH Chain; mAb8 VL Chain
notes: as for B1
B9: mAb10: anti-IL-11Rα antibody; VH SEQ ID NO: 211, VL SEQ ID NO: 212; human IgG4 (S228P), kappa light chain (antibody, V domains shown)
VH: B1 VH with G50S, P53A
VL: B1 VL
modifications: human IgG4 S228P and kappa constant regions; mAb10 VH Chain; mAb10 VL Chain
notes: as for B1
B10: mAb21 (antibody, human IgG4, V domains shown)
VH: B1 VH with W31H, G50S
VL: B1 VL
notes: Expressed as human IgG4 (S228P EU)
B11: mAb23 (antibody, human IgG4, V domains shown)
VH: B1 VH with W31K, G50S
VL: B1 VL
notes: as for B10
B12: mAb29 (antibody, human IgG4, V domains shown)
VH: B1 VH with W31S, G50S
VL: B1 VL
notes: as for B10
B13: mAb31 (antibody, human IgG4, V domains shown)
VH: B1 VH with W31V, G50S
VL: B1 VL
notes: as for B10

Target: T1, hIL-11Rα
Experiment: Kinetic binding analysis by biolayer interferometry (protein G biosensors, Octet RED96e)
Details: beyond the ability of the instrument to determine an accurate off-rate (kd)
Description: Association was carried out in the presence of a 2-fold dilution series of hIL-11Rα and was allowed to proceed for 120 seconds; dissociation was measured for 300 to 1200 seconds.

binding affinity (in words) | Molecule
very high binding affinity | B1
very high binding affinity | B2
very high binding affinity | B3
very high binding affinity | B4
very high binding affinity | B5
very high binding affinity | B6
very high binding affinity | B7
very high binding affinity | B8

Same assay, conditions: protein G biosensors; association 120 seconds

ka | Molecule
62200 M⁻¹ s⁻¹ | B1
58100 M⁻¹ s⁻¹ | B2
33700 M⁻¹ s⁻¹ | B3
63500 M⁻¹ s⁻¹ | B4
800000 M⁻¹ s⁻¹ | B5
840000 M⁻¹ s⁻¹ | B9
84000 M⁻¹ s⁻¹ | B6
66700 M⁻¹ s⁻¹ | B7
65100 M⁻¹ s⁻¹ | B8

Same assay, conditions: protein G biosensors; dissociation 300 to 1200 seconds

kd | Molecule
<1e-07 s⁻¹ | B1
<1e-07 s⁻¹ | B2
<1e-07 s⁻¹ | B3
<1e-07 s⁻¹ | B4
<1e-07 s⁻¹ | B5
0.000416 s⁻¹ | B9
<1e-07 s⁻¹ | B6
<1e-07 s⁻¹ | B7
<1e-07 s⁻¹ | B8

Tested on: IL-11 signaling in STAT3 Reporter (Luciferase)—HEK293 cell line
Experiment: Cell-based STAT3 reporter (luciferase) assay for inhibiting IL-11 signaling
Design: species or system human
Details: compared with TS7 and 8E2
Description: Further testing of the lead mAbs was carried out using a cell-based reporter assay. IL-11 is reported to signal through the STAT3 and ERK pathways. Therefore, a STAT3 reporter cell line in which firefly luciferase gene expression is driven by STAT3 response elements located upstream of a minimal TATA promoter was selected to analyze mAb functional activity. In these cells, IL-11 can activate the endogenous STAT3 allowing it to bind to the STAT3 response elements, inducing transcription of the luciferase reporter gene and resulting in readily detectable luciferase expression. Antibodies to IL-11R which block IL-11 signaling should inhibit expression of IL-11 driven luciferase in these cells.
The STAT3 Reporter (Luciferase)—HEK293 cell line (BPS Bioscience, catalog #79800-P) was grown, passaged, and assayed as per manufacturer's protocols. Cells were added at 25,000 cells per well in a 96-well microtiter dish and incubated at 37° C. for 30-45 min. in 5% CO2 humidified air. Anti-IL-11R mAbs were added as a 3-fold dilution series in duplicate columns or rows, and plates were returned to the incubator for an additional 1 h at 37° C. after which 40 ng/mL IL-11 was added to each well to initiate the signal transduction cascade and luciferase production. Plates were incubated for 18-24 hours at 37° C. and luciferase was detected using a One-Step Luciferase Assay System (BPS Bioscience, cat. no. 60690-1) as per manufacturer's instructions.

Molecule | relative potency at inhibiting IL-11 signaling (in words)
B1 | more potent at inhibiting IL-11 signaling than either of TS7 or 8E2
B2 | comparable in potency to TS7
B3 | comparable in potency to TS7
B4 | less potent than TS7
B5 | variable
B9 | less potent than TS7
B6 | comparable in potency to TS7
B7 | more potent at inhibiting IL-11 signaling than either of TS7 or 8E2
B8 | less potent than TS7

Target: T2, human IL-11Rα
Experiment: BLI (Octet RED96e), mAb on anti-human constant domain (AHC) biosensors, hIL-11R in solution
Details: not given
Text: A further series of antibodies were designed in which the residue at Kabat position 31 of the heavy chain was varied (mAbs 16-32). In this case an alternate biolayer interferometry assay was used to initially rank the antibodies compared to mAb5, the closest relative in sequence to mAbs 16-32. MAbs were loaded onto anti-human constant domain (AHC) biosensors (FortdBio) in 10× kinetics buffer consisting of PBS, 0.1% BSA, 0.02% Tween 20 for 120 s to achieve a spectral shift value of 0.8 to 1.2 nm. Association was carried out in the presence of 2-fold dilution series of hIL-1 IR and was allowed to proceed for 120 s. Dilution series started 10 nM. The dissociation in 10× kinetics buffer for 1200 s. Binding kinetic measurements were taken on an Octet RED96e instrument.

Kd | kon | koff | Molecule
< 0.03 nM | 750000 M⁻¹ s⁻¹ |  | B10
< 0.03 nM | 720000 M⁻¹ s⁻¹ |  | B11
0.03 nM | 610000 M⁻¹ s⁻¹ | 1.8e-05 s⁻¹ | B12
< 0.03 nM | 690000 M⁻¹ s⁻¹ |  | B13

— patent US20240425606A1, “ANTI-IL-11RA ANTIBODIES” (Lassen Therapeutics 1, Inc., priority 2021, published 2024)
